Measurements as given in patent US20120121706A1 (TUFTS MEDICAL CENTER, published 2012).
One block for each molecule: values may come before it.

B1: proMMP-1 (platelet-associated zymogen of MMP-1) (enzyme, human, UniProt P03956 20-469, looked up)
chain: FPATLETQEQDVDLVQKYLEKYYNLKNDGRQVEKRRNSGPVVEKLKQMQEFFGLKVTGKPDAETLKVMKQPRCGVPDVAQFVLTEGNPRWEQTHLTYRIENYTPDLPRADVDHAIEKAFQLWSNVTPLTFTKVSEGQADIMISFVRGDHRDNSPFDGPGGNLAHAFQPGPGIGGDAHFDEDERWTNNFREYNLHRVAAHELGHSLGLSHSTDIGALMYPSYTFSGDVQLAQDDIDGIQAIYGRSQNPVQPIGPQTPKACDSKLTFDAITTIRGEVMFFKDRFYMRTNPFYPEVELNFISVFWPQLPNGLEAAYEFADRDEVRFFKGNKYWAVQGQNVLHGYPKDIYSSFGFPRTVKHIDAALSEENTGKTYFFVANKYWRYDEYKRSMDPGYPKMIAHDFPGIGHKVDAVFMKDGFFYFFHGTRQYKFDPKTKRILTLQKANSWFNCRKN
notes: Endogenous protein co-immunoprecipitated from platelet lysates; detected by Western with AB8105 or AB806; also called MMP-1 (predominantly in the pro form)

Legend:
[1] = target: PAR1 (protease-activated receptor-1) on human platelets (human) (UniProt P25116); test: cell-based or functional assay
Sequence of PAR1 (protease-activated receptor-1) on human platelets (human) (P25116 42-425): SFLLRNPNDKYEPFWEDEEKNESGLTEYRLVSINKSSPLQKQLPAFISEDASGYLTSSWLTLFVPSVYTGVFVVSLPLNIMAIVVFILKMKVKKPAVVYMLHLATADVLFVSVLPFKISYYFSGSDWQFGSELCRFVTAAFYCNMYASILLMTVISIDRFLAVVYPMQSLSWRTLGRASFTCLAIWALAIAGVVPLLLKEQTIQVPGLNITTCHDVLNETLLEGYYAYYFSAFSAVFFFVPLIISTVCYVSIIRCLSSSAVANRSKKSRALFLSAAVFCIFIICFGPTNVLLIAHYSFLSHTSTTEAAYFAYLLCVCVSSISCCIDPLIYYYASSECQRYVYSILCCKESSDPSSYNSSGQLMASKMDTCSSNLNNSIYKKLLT

[2] = target: PAR4 thrombin receptor on human platelets (human) (UniProt Q96RI0); test: cell-based or functional assay
Sequence of PAR4 thrombin receptor on human platelets (human) (Q96RI0 48-385): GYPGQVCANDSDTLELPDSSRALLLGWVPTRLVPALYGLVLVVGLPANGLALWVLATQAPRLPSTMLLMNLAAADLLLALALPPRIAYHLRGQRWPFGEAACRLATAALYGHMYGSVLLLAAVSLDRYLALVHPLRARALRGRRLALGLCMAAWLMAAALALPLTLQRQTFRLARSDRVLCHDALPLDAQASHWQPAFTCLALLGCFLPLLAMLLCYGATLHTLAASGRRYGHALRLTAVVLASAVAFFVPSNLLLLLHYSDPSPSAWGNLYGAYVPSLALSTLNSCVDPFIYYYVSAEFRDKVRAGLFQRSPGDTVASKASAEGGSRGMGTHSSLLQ

GPIbα of human platelets = GPIbα of human platelets (human, UniProt P07359 17-652); test: co-immunoprecipitation from resting human platelet lysates (anti-GPIBα MM2/174), Western for MMP-1
Method: (§1) One candidate binding site(s) for the platelet-associated proMMP-1 is the α₂β₁ collagen receptor. To determine if proMMP-1 associates with integrins in resting human platelets, lysates from gel-filtered platelets were incubated with 4-5 μg/ml anti-α₂ (Gi9 or AK7), β₁ (MAB1987), β₃ (MAB1957), GPVI (SC20149), GPIBα (MM2/174) or mouse IgG control for 2-4 h at 4° C. Protein G sepharose was added and incubated for an additional 1 h. Beads were collected and washed 4× in lysis buffer supplemented with 200 mM NaCl.

[3] = target: B1; test: co-immunoprecipitation from resting human platelet lysates (anti-GPVI SC20149), Western for MMP-1
Method: as §1

decrease in growth rate and size of platelet aggregate strings on collagen under arterial flow, 3 µM [1]: 75%
Molecule: P1pal-12 (PAR1 pepducin lipopeptide)

collagen-induced platelet aggregation, 3 µM pepducin [2]: 10%
Molecule: P4pal-10 (PAR4 pepducin lipopeptide)

Molecule: B1
binding result (GPIbα of human platelets): no binding

binding result [3]: no binding
B2: GPVI of human platelets (receptor, UniProt Q9HCN6 21-339, looked up)
chain: QSGPLPKPSLQALPSSLVPLEKPVTLRCQGPPGVDLYRLEKLSSSRYQDQAVLFIPAMKRSLAGRYRCSYQNGSLWSLPSDQLELVATGVFAKPSLSAQPGPAVSSGGDVTLQCQTRYGFDQFALYKEGDPAPYKNPERWYRASFPIITVTAAHSGTYRCYSFSSRDPYLWSAPSDPLELVVTGTSVTPSRLPTEPPSPVAEFSEATAELTVSFTNEVFTTETSRSITASPKESDSPAGPARQYYTKGNLVRICLGAVILIILAGFLAEDWHSRRKRLRHRGRAVQRPLPPLPPLPLTRKSNGGQDGGRQDVHSRGLCS
notes: also called GPVI collagen receptor
